Assay results taken from the supplement of paper PMC9170038.

Key:
MS2 coat protein [1] = experiment: apparent KD of MS2 coat protein, switch OFF state (with FMN for OFF switches, without FMN for ON switches); designed switch direction (-1 OFF switch, 1 ON switch): -1; higher = weaker reporter binding; conditions: FMN input: 0 or 200 uM; Eterna round: R93 (includes R88 designs)
In short: (§1)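 Apparent KD stands for the median, per design, of fits to normalised cluster binding curves. The curves came from titrating on-chip-transcribed RNA switches on Illumina sequencing clusters with SNAP-549-labelled MS2 coat protein, twofold from 0.7 or 1.5 nM to 3 µM. Buffer was 100 mM Tris-HCl pH 7.5, 80 mM KCl, 4 mM MgCl2, without or with constant ligand.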

MS2 coat protein [2] = experiment: apparent KD of MS2 coat protein, switch ON state; designed switch direction (-1 OFF switch, 1 ON switch): -1; higher = weaker reporter binding; conditions: FMN input: 0 or 200 uM; Eterna round: R93 (includes R88 designs)
In short: as §1

MS2 coat protein [3] = experiment: apparent KD of MS2 coat protein; designed switch direction (-1 OFF switch, 1 ON switch): 1; higher = weaker reporter binding
In short: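 The buffer was Tris-HCl pH 7.5 with KCl, MgCl2, BSA, DTT, tRNA and Tween-20. In it, SNAP-549-labelled MS2 coat protein was titrated in doubling steps from 0.7 or 1.5 nM to 3 µM over chip-bound RNA switches transcribed by stalled E. coli RNA polymerase on Illumina chips. Apparent KD is the per-design median over clusters of curve fits to normalised fluorescence.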

[4] = Eterna round: R95, input ligand: microRNA oligo, concentration not stated
[5] = Eterna round: R95, input ligand: FMN 200 uM
[6] = Eterna round: R95, input ligand: none
[7] = input ligand: microRNA oligo, concentration not stated

Row | Sequence | apparent KD of MS2 coat protein (MS2 coat protein [3]; [4]) [nM] | apparent KD of MS2 coat protein (MS2 coat protein [3]; [5]) [nM] | apparent KD of MS2 coat protein (MS2 coat protein [3]; [6]) [nM] | apparent KD of MS2 coat protein (MS2 coat protein [3]; input ligand: FMN 200 uM) [nM] | apparent KD of MS2 coat protein (MS2 coat protein [3]; [7]) [nM] | apparent KD of MS2 coat protein (MS2 coat protein [3]; input ligand: none) [nM] | other results
1 | AACAGGACAGGAUAUACAUGAGGAUCACCCAUGUAGGAAACAAGCAGAGUACCAAACAGUAGAAGGGUCAUGGA [Ruby 29] | – | – | – | – | – | – | apparent KD of MS2 coat protein (MS2 coat protein [1]): 50.3 nM; apparent KD of MS2 coat protein (MS2 coat protein [2]): 31.3 nM
2 | AGUCUGAGAGGAUAUACAUGGGAAAAAAAAGUAAGAUCCCUACAUGAGGAUCACCCAUGUAGAAGGCUCUGACA [Ex2 Design 143: Sub-opt 7] | – | – | – | – | – | – | apparent KD of MS2 coat protein (MS2 coat protein [1]): 17.9 nM; apparent KD of MS2 coat protein (MS2 coat protein [2]): 27.4 nM
3 | AUUAUGUAAGGAUAUGUACGAACAACAAAACAAAUAACGGUACAGAAGGUACAUGAGGAUCACCCAUGUAUAAA [May 71] | – | – | – | – | – | – | apparent KD of MS2 coat protein (MS2 coat protein [1]): 21.4 nM; apparent KD of MS2 coat protein (MS2 coat protein [2]): 23.6 nM
4 | AAAAGCACAGGAUAUACAAGGAUAUGACGAAAGUCAUAAAAACAUGAGGAUCACCCAUGUAGAAGGGUGCAAAA [Mod of Meechl's... 64% 3] | – | – | – | – | – | – | apparent KD of MS2 coat protein (MS2 coat protein [1]): 136 nM; apparent KD of MS2 coat protein (MS2 coat protein [2]): 206 nM
5 | CAGUACUGAGGAUAUACAUGAGGAUCACCCAUGUAUUCCAGCUAGGAAACUAGCAAAUGUAGAAGGCAGUACUG [Ex3: 825] | – | – | – | – | – | – | apparent KD of MS2 coat protein (MS2 coat protein [1]): 14.8 nM; apparent KD of MS2 coat protein (MS2 coat protein [2]): 14 nM
6 | AGUUGGCGAGGAUAUACAUGAGGAUCACCCAUGUGAAAGAAAAACUCGAAAGAGAAAAGUAGAAGGCGCUGACA [Mat - Exclusion 3 - Eli mod - D93] | – | – | – | – | – | – | apparent KD of MS2 coat protein (MS2 coat protein [1]): 37.6 nM; apparent KD of MS2 coat protein (MS2 coat protein [2]): 16.8 nM
7 | AAGAAGAUAGGAUAUACAAAAUAAAAGAAAAGAAAGAAAGAACAUGAGGAUCACCCAUGUAGAAGGAUCAAGAA [Sehetepibre Amenemhat I] | – | – | – | – | – | – | apparent KD of MS2 coat protein (MS2 coat protein [1]): 17.7 nM; apparent KD of MS2 coat protein (MS2 coat protein [2]): 25 nM
8 | GUAGGACAUGAGGAUCACCCAUGUGGGAGGGAACGAGGAUAUGUGAAAGGAUUGAAGAGGACAGAAGGCGUGGAGG [JR_SS1_Sub026] (puzzle: Same State 1) | 30.1 | – | – | – | – | – | –
9 | GGUCCAGCCUGAGCUGGACCACAGCAUGUACAUGAGGAUCACCCAUGUCAUGUACAAGCUUUUUGUUUAACUUAAAA [Sensorship 12 - Jieux - Sensor for hsa-mir-208a] (puzzle: Sensor for hsa-mir-208a) | 18.2 | 211 | 287 | – | – | – | –
10 | CGCCAGAGAGCAGGAUAUGGGCCACGGCCUAAGGGCUGUGAACUCACAUGAGGAUCACCCAUGUCCCAGAAGGGCUCCUGGCUA [Temabeanan] (Eterna round: R96, puzzle: Same State NG 2) | – | – | – | 112 | 1020 | 1180 | –
11 | UGGAUCUAGGCUUGCCUGGGUCCAUGUUGACAUGAGGAUCACCCAUGUGUUUUUUUUUUGCUUUUUGUUUGUCAACA [JL A Humble Attempt mod 3] (puzzle: Sensor for hsa-mir-208a) | 12.3 | 19.1 | 21.7 | – | – | – | –
12 | GGAGCCGGCACCGAGGAUAUUCAUAUUAAAACAUGAGGAUCACCCAUGUAGGUCGAAAGACCUUGGGAGAAGGCGGAUCGGCUCG [Xeonanis - 30] (puzzle: Same State 2) | 518 | 38.3 | 803 | – | – | – | –
13 | GUAGCAUACCGAGGAUAUUCAUAUUACAUGAGGAUCACCCAUGUUAUAGGUCGAUUACGACCUUGGGAGAAGGCGGAAUGCUAC [Xeonanis - 20 Mod32] (Eterna round: R96, puzzle: Same State NG 2) | – | – | – | – | 23 | – | –
14 | AUAAAACAUGAGGAUCACCCAUGUCAACAAAGUCGAGGAUAUGGGCAAAUAAAUUAAGAACCAGAAGGCGAAUAAU [salish99_ss1_r3_021] (puzzle: Same State 1) | 236 | 36.9 | 313 | – | – | – | –
15 | UAGAACAAGCUUUUUGCCCGUCUUAUAUAACAUGAGGAUCACCCAUGUAAGGUGAAAGUUAGAGAGUGGAGGUUGAA [JR_SHM208A_Sub048] (puzzle: Sensor for hsa-mir-208a) | 193 | 216 | 156 | – | – | – | –
16 | UGGAGAAGUCAAGGAUAUGCUACCGUUUCGGUAGCAGAAGGUGAUCACAUGAGGAUCACCCAUGUAUGCAUGCGUGAGCGUGCU [JL SSNG1 3.55] (Eterna round: R96, puzzle: Same State NG 1) | – | – | – | 337 | 15.2 | 125 | –

Row | Sequence | apparent KD of MS2 coat protein (MS2 coat protein [3]; [4]) [nM] | apparent KD of MS2 coat protein (MS2 coat protein [3]; [5]) [nM] | apparent KD of MS2 coat protein (MS2 coat protein [3]; [6]) [nM] | apparent KD of MS2 coat protein (MS2 coat protein [3]; input ligand: FMN 200 uM) [nM] | apparent KD of MS2 coat protein (MS2 coat protein [3]; [7]) [nM] | apparent KD of MS2 coat protein (MS2 coat protein [3]; input ligand: none) [nM] | other results
17 | GGAAUAUGAUGUUACAUGAGGAUCACCCAUGUAGUAAUAACUAAGGAUAUCUGAAAGGGAGGAGAAGAGAAGGUAGGAUCAUAA [AK SSNG3-V2-10.2] (Eterna round: R96, puzzle: Same State NG 3) | – | – | – | 60 | 35.4 | 56.4 | –
18 | UGAAUGGUGAUAGGAUAUACAUGAGGAAUCCUCGUAGAAGGAUCACGACAUGAGGAUCACCCAUGUAGCCGUCCGUAGACGGCA [JL SSNG1 1.23] (Eterna round: R96, puzzle: Same State NG 1) | – | – | – | 99.7 | 778 | 242 | –
19 | AGUAUACAUGAGGAUCACCCAUGUCAACGUAGUCGAGGAUAUGGGCAGCCGUGAGGCGUACCAGAAGGCGAAGAGA [Mat - Same State 1 - Mod of JL - D5] (puzzle: Same State 1) | 50.5 | 24.5 | 68.6 | – | – | – | –
20 | UUGAAGAAUUAAGGAUAUUGAGUACAUAUGUUUAACAUGAGGAUCACCCAUGUGGGUUGCGGUAUCGAGAAGGUAAAUUACAAG [JL SSNG2 1.44] (Eterna round: R96, puzzle: Same State NG 2) | – | – | – | 105 | 91.8 | 138 | –
21 | GUGGUCAAUCAAGGAUAUGGAGCCUUAUUGGCUCCAGAAGGUGGGACAUGAGGAUCACCCAUGUGGCAGUGGUCAAAUGACCAC [Fiskers NG1ss - 34] (Eterna round: R96, puzzle: Same State NG 1) | – | – | – | 149 | 172 | 164 | –
22 | CGGCGCUGUCGAGAGGAUAUGCGGUGAUGGACAUGAGGAUCACCCAUGUUAGCGAUAGCAUUACGGUAGAAGGCUCCACAGCUGU [Soteed Omei mod 12] (puzzle: Same State 2) | 187 | 42.5 | 420 | – | – | – | –
23 | ACGCAGCUAGGUGAGGAUAUCGGUGGUAAAACAUGAGGAUCACCCAUGUCCGAAGCUCGGACUUCCGAGAAGGCGCCCGGCUGCA [Velaberi] (Eterna round: R96, puzzle: Same State 2) | – | – | – | 12.7 | 78.8 | 106 | –
24 | CGGGUACAUGAGGAUCACCCAUGUGGGAGGGAUGCAGGAUAUGUGGGAAAAGGGUAUGAAACAGAAGGGCAAGGAG [JR_SS!_Sub013] (puzzle: Same State 1) | 33.2 | 29.6 | 35.1 | – | – | – | –
25 | UGAGCCGGCACUGAGGAUAUUCAUAUUAAAACAUGAGGAUCACCCAUGUAGGCCAGAAGGCCUUGGGAGAAGGCAGGUCGGCUCA [Mat - Same State 2 - Mod of UCT - D62] (Eterna round: R96, puzzle: Same State 2) | – | – | – | 19.5 | 190 | 311 | –
26 | GUGGUCAGACAUGAGGAUCACCCAUGUGGAAUAAAUAACGGACAGGAUAUAUAAUAUAGGAUAUAGUAGAAGGGUUGAUUGGUG (Eterna round: R96, puzzle: Same State NG 3) | – | – | – | 85.8 | 57.7 | 60.2 | –
27 | ACCCGCGGGCCACAUGAGGAUCACCCAUGUGACCGGUGAUCCAAGGAUAUGUGUAGGGUAGAUGCACAGAAGGUGGCCAAAACU [Ainriqu] (Eterna round: R96, puzzle: Same State NG 3) | – | – | – | 26.6 | 14.8 | 18.5 | –
28 | UUCCCAGCGGGAGGAUAUGGUGCCUUAUUGGUGCUAGAAGGUCCAACAUGAGGAUCACCCAUGUGGGAGUGGUCUAAUGACCUC [SS NG10LRO07] (Eterna round: R96, puzzle: Same State NG 1) | – | – | – | – | 169 | – | –
29 | GGAGCCGGCCUAGGAUAUUUCAUUUUAAAACAUGAGGAUCACCCAUGUAGGCCAGAAGGCCUUGGGAAGAAGGAGGUCGGCUCC [Loop Effect - U24,U25,U26] (Eterna round: R96, puzzle: Same State NG 2) | – | – | – | 17.4 | 33.2 | 69.3 | –
30 | CUCAAACAUGAGGAUCACCCAUGUUUUUUCAUGGGAGGAUAUCUAAGUUCAUUAUAUUCAGGAGAAGGCCUAUGUC [× ×•×ª×• ×ž×“×™× ×” × ×—×ª-07] (puzzle: Same State 1) | 729 | 159 | 261 | – | – | – | –
31 | AUAAAACAUGAGGAUCACCCAUGUCAACAAAGUCGAGGAUAUGGUCAAAUAAAAUAAGAACCAGAAGGCGAAUAAU [salish99_ss1_r3_029] (puzzle: Same State 1) | 26.3 | 17.8 | 25.3 | – | – | – | –
32 | AGAUAGUGUGGAAAGGAUAUACUGUUGAGGACAUGAGGAUCACCCAUGUGGUAGAGGAGGUAAGGGUAGAAGGUUCGGGAUUGGU [JR_SS@_Sub019] (puzzle: Same State 2) | 34.5 | 32.6 | 47.1 | – | – | – | –
